Test results as given in patent US7345026.
Where two headings read alike, the source gives them in different places.

Molecular target: HLA-A2.1 molecules on T2 (TAP-, HLA-A2.1+) cells (human)
Assay: T2 cells, peptide binding by surface HLA-A2.1 (BB7.2) flow cytometry; ratio of concentrations reaching 20% of maximal binding

RA (relative affinity) (ratio to HIV 1 rt.476 reference peptide)	RA (relative affinity) (ratio to HIV 1 rt.476 reference peptide) (remark: other sources report otherwise)	Binder
1.52	–	VLPDVFIRC (modifications not checked) [NA17-A nt38-64 epitopic peptide]
–	0.91	RMPEAAPPV [p53 65-73 epitopic peptide]
